Results reported in the supplement of paper PMC10567573.

B1: ZNF263 (parent)
chain: LLRHQRIHTGERPYKCPECGKSFS

Variants of: B1
Assay: protein stability index of a GFP-peptide fusion (GPS, HEK-293T) (PSI 1-6); higher = more stable
Details: c terminus: a fixed tail appended
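Note: lentivirally expressed fusions sorted by FACS into six bins by GFP to DsRed ratio, PSI derived from sequencing read proportions per bin multiplied by bin number.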

Variant | protein stability index
LLRHQRIHTGERPYKCPECYKSFS | 1.76
LLRHQRIHTGERPYKCPECGASFS | 2.93
LLRHQRIHTGERPYKCPECGCSFS | 2.11
LLRHQRIHTGERPYKCPECGDSFS | 2.38
LLRHQRIHTGERPYKCPECGESFS | 2.53
LLRHQRIHTGERPYKCPECGFSFS | 1.82
LLRHQRIHTGERPYKCPECGGSFS | 1.83
LLRHQRIHTGERPYKCPECGHSFS | 2.82
LLRHQRIHTGERPYKCPECGISFS | 1.68
LLRHQRIHTGERPYKCPECGLSFS | 2.77
LLRHQRIHTGERPYKCPECGMSFS | 1.59
LLRHQRIHTGERPYKCPECGNSFS | 2.05
LLRHQRIHTGERPYKCPECGPSFS | 2.61
LLRHQRIHTGERPYKCPECGQSFS | 2.75
LLRHQRIHTGERPYKCPECGRSFS | 2.01
LLRHQRIHTGERPYKCPECGSSFS | 1.84
LLRHQRIHTGERPYKCPECGTSFS | 2.16
LLRHQRIHTGERPYKCPECGVSFS | 1.91
LLRHQRIHTGERPYKCPECGYSFS | 2.19
LLRHQRIHTGERPYKCPECGKAFS | 2.41
LLRHQRIHTGERPYKCPECGKCFS | 2.37
LLRHQRIHTGERPYKCPECGKDFS | 1.63
LLRHQRIHTGERPYKCPECGKEFS | 1.88
LLRHQRIHTGERPYKCPECGKFFS | 2.2
LLRHQRIHTGERPYKCPECGKGFS | 2.65
LLRHQRIHTGERPYKCPECGKHFS | 2.29

Variant | protein stability index
LLRHQRIHTGERPYKCPECGKIFS | 2.88
LLRHQRIHTGERPYKCPECGKKFS | 2.35
LLRHQRIHTGERPYKCPECGKLFS | 1.92
LLRHQRIHTGERPYKCPECGKMFS | 2.05
LLRHQRIHTGERPYKCPECGKNFS | 1.4
LLRHQRIHTGERPYKCPECGKPFS | 2.36
LLRHQRIHTGERPYKCPECGKQFS | 2.5
LLRHQRIHTGERPYKCPECGKRFS | 2.4
LLRHQRIHTGERPYKCPECGKTFS | 2.23
LLRHQRIHTGERPYKCPECGKVFS | 2.98
LLRHQRIHTGERPYKCPECGKWFS | 2.09
LLRHQRIHTGERPYKCPECGKYFS | 2.38
LLRHQRIHTGERPYKCPECGKSAS | 2.87
LLRHQRIHTGERPYKCPECGKSCS | 3.29
LLRHQRIHTGERPYKCPECGKSDS | 3.13
LLRHQRIHTGERPYKCPECGKSES | 2.38
LLRHQRIHTGERPYKCPECGKSGS | 2.75
LLRHQRIHTGERPYKCPECGKSHS | 3.64
LLRHQRIHTGERPYKCPECGKSIS | 2.51
LLRHQRIHTGERPYKCPECGKSKS | 2.83
LLRHQRIHTGERPYKCPECGKSLS | 2.14
LLRHQRIHTGERPYKCPECGKSMS | 1.99
LLRHQRIHTGERPYKCPECGKSNS | 2.68
LLRHQRIHTGERPYKCPECGKSPS | 3.39
LLRHQRIHTGERPYKCPECGKSQS | 3.71
LLRHQRIHTGERPYKCPECGKSRS | 1.93

Variant | protein stability index
LLRHQRIHTGERPYKCPECGKSSS | 2.25
LLRHQRIHTGERPYKCPECGKSTS | 2.59
LLRHQRIHTGERPYKCPECGKSVS | 2.53
LLRHQRIHTGERPYKCPECGKSWS | 1.84
LLRHQRIHTGERPYKCPECGKSYS | 2.79
LLRHQRIHTGERPYKCPECGKSFA | 1.92
LLRHQRIHTGERPYKCPECGKSFC | 3.14
LLRHQRIHTGERPYKCPECGKSFD | 2.36
LLRHQRIHTGERPYKCPECGKSFE | 1.88
LLRHQRIHTGERPYKCPECGKSFF | 2.01
LLRHQRIHTGERPYKCPECGKSFG | 3.65
LLRHQRIHTGERPYKCPECGKSFH | 2.12
LLRHQRIHTGERPYKCPECGKSFI | 2.11
LLRHQRIHTGERPYKCPECGKSFK | 2.07
LLRHQRIHTGERPYKCPECGKSFL | 2.43
LLRHQRIHTGERPYKCPECGKSFM | 2.28
LLRHQRIHTGERPYKCPECGKSFN | 2.34
LLRHQRIHTGERPYKCPECGKSFP | 2.24
LLRHQRIHTGERPYKCPECGKSFQ | 3.11
LLRHQRIHTGERPYKCPECGKSFR | 1.94
LLRHQRIHTGERPYKCPECGKSFT | 2.08
LLRHQRIHTGERPYKCPECGKSFV | 2.62
LLRHQRIHTGERPYKCPECGKSFW | 2.59
LLRHQRIHTGERPYKCPECGKSFY | 2.25
